Measured values as given in US20250188167A1.
Like-named read-outs stand apart in the source and are kept apart here.

What was measured:
human B7-H3 (human) [1] = target: human B7-H3 (human) (UniProt Q5ZPR3); assay: cell-based or functional assay
human B7-H3 (human) [2] = target: human B7-H3 (human) (UniProt Q5ZPR3); assay: flow cytometry (FACS) on CHO-K1/B7-H3 cells
human B7-H3 (human) [3] = target: human B7-H3 (human) (UniProt Q5ZPR3); assay: flow cytometry (FACS) on CHO-K1 cells expressing human B7-H3; goat anti-human IgG (H+L) secondary
human B7-H3 (human) [4] = target: human B7-H3 (human) (UniProt Q5ZPR3); assay: cell-based or functional assay; remark: listed apart in the source

UniProt Q5ZPR3, sequence (Q5ZPR3 29-534): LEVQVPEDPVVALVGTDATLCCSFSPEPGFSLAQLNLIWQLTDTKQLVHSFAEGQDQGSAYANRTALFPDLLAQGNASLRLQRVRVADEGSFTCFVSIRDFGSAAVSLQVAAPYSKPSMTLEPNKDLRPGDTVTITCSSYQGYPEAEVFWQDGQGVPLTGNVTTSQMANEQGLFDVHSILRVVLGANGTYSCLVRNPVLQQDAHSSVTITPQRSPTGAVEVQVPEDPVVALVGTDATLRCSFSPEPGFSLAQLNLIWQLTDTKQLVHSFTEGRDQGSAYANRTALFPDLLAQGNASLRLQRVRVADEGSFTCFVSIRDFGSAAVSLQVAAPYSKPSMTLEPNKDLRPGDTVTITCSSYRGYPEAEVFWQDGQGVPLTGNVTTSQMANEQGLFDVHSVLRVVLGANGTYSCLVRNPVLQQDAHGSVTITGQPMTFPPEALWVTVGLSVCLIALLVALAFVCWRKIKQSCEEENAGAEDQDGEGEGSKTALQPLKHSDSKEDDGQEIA

Molecule: MGA271 (Enoblituzumab) (antibody)
- ADCC % Relative activity (EC50 of positive control MGA-271 / EC50 of sample), plate 01 (human B7-H3 (human) [1]): 100%
- ADCC % Relative activity (EC50 of positive control MGA-271 / EC50 of sample), plate 02 (human B7-H3 (human) [1]): 100%
- ADCC EC50 (% target cell lysis, LDH; NK92/CD16a-VV effector cells), plate 01 (human B7-H3 (human) [1]): 0.0394 µg/mL
- ADCC EC50 (% target cell lysis, LDH; NK92/CD16a-VV effector cells), plate 02 (human B7-H3 (human) [1]): 0.0443 µg/mL
- EC50 (human B7-H3 (human) [2]): 20.8 nM
- EC50 (human B7-H3 (human) [3]): 102 nM

Molecule: MGA271-hIgG1 (antibody)
- EC50 (human B7-H3 (human) [3]): 81.6 nM

Molecule: DS-5573a (antibody)
- CDC % Relative activity (EC50 of positive control DS-5573a / EC50 of sample) (human B7-H3 (human) [1]): 100%
- CDC % Relative activity (EC50 of positive control DS-5573a / EC50 of sample), plate 01 (human B7-H3 (human) [1]): 100%
- CDC % Relative activity (EC50 of positive control DS-5573a / EC50 of sample), plate 02 (human B7-H3 (human) [1]): 100%
- CDC EC50 (% target cell lysis, Cell Titer-Glo) (human B7-H3 (human) [1]): 0.69 µg/mL
- CDC EC50 (% target cell lysis, Cell Titer-Glo), plate 01 (human B7-H3 (human) [1]): 0.595 µg/mL
- CDC EC50 (% target cell lysis, Cell Titer-Glo), plate 02 (human B7-H3 (human) [1]): 0.628 µg/mL

B1: 12C9F1B5-VH4-VL2 (antibody, human IgG1, kappa, V domains shown)
VH: QVQLVQSGAEVKKPGASVKVSCKASGFTNYGMNWVRQAPGQRLEWMGWINPYSGVPTYADDFKGRVTITRDTSASTAYMELSSLRSEDTAVYYCARDDGFHYTMDYWGQGTLVTVSS
VL: DIVMTQSPLSLPVTPGEPASISCRSSQNLVHSNGITYLHWYLQKPGQSPQLLIYKVSNRFSGVPDRFSGSGSGTDFTLKISRVEAEDVGVYYCSQSTLVPWTFGQGTKVEIKR
- CDC % Relative activity (EC50 of positive control DS-5573a / EC50 of sample), plate 01 (human B7-H3 (human) [4]): 155%
- CDC EC50 (% target cell lysis, Cell Titer-Glo), plate 01 (human B7-H3 (human) [4]): 0.384 µg/mL
- EC50 (human B7-H3 (human) [3]): 0.339 nM

B2: 43H11G12-VH4-VL2 (antibody, human IgG1, kappa, V domains shown)
VH: QVQLVQSGAEVKKPGASVKVSCKASGYNFRDFGMNWVRQAPGQRLEWMGWLNSYSGVPTYADDFKGRVTITRDTSASTAYMELSSLRSEDTAVYYCARDDGYNYTMNYWGQGTLVTVSS
VL: DIVMTQSPLSLPVTPGEPASISCRSSQSLVHSNGITYLHWYLQKPGQSPQLLIYKVSNRFSGVPDRFSGSGSGTDFTLKISRVEAEDVGVYYCSQSTHVPWTFGQGTKVEIKR
- CDC % Relative activity (EC50 of positive control DS-5573a / EC50 of sample), plate 01 (human B7-H3 (human) [4]): 104%
- CDC EC50 (% target cell lysis, Cell Titer-Glo), plate 01 (human B7-H3 (human) [4]): 0.57 µg/mL
- EC50 (human B7-H3 (human) [3]): 0.155 nM

B3: 47F3F10B4-VH1-VL4(IgG1m) (antibody)
heavy: QVQLVQSGAEVKKPGASVKVSCKASGYTFTDHYMHWVRQAPGQGLEWMGYIFPNNGVSGYNQNFKDRVTMTRDTSISTAYMELSRLRSDDTAVYYCARRQLGLGTMDYWGQGTLVTVSSASTKGPSVFPLAPSSKSTSGGTAALGCLVKDYFPEPVTVSWNSGALTSGVHTFPAVLQSSGLYSLSSVVTVPSSSLGTQTYICNVNHKPSNTKVDKRVEPKSCDKTHTCPPCPAPELVGGPSVFLLPPKPKDTLMISRTPEVTCVVVDVSHEDPEVKFNWYVDGVEVHNAKTKPPEEQYNSTLRVVSVLTVLHQDWLNGKEYKCKVSNKALPAPIEKTISKAKGQPREPQVYTLPPSREEMTKNQVSLTCLVKGFYPSDIAVEWESNGQPENNYKTTPLVLDSDGSFFLYSKLTVDKSRWQQGNVFSCSVMHEALHNHYTQKSLSLSPGK
light: DIQMTQSPSSLSASVGDRVTITCRASKSVSTSGYNYMHWYQQKPGKAPKLLIYLASNLESGVPSRFSGSGSGTDFTLTISSLQPEDFATYYCQHSKELPWTFGQGTKVEIKRTVAAPSVFIFPPSDEQLKSGTASVVCLLNNFYPREAKVQWKVDNALQSGNSQESVTEQDSKDSTYSLSSTLTLSKADYEKHKVYACEVTHQGLSSPVTKSFNRGEC
- CDC % Relative activity (EC50 of positive control DS-5573a / EC50 of sample), plate 02 (human B7-H3 (human) [4]): 445%
- CDC EC50 (% target cell lysis, Cell Titer-Glo), plate 02 (human B7-H3 (human) [4]): 0.141 µg/mL
- EC50 (human B7-H3 (human) [3]): 0.299 nM

B4: 12C9F1B5 (antibody, V domains shown)
VH: QIQLVQSGPELKKPGETVKISCKASGFTNYGMNWVKQAPGKGLKWMGWINPYSGVPTYADDFKGRFAFSLETSASTAYLQINNLKNEDTATYFCARDDGFHYTMDYWGQGTSVTVSS
VL: DVVLTQTPLSLPVSLGDQASISCRSSQNLVHSNGITYLHWYLQKPGQSPKLLIYKVSNRFSGVPDRFSGSGSGTDFTLTISRVEAEDLGVYFCSQSTLVPWTFGGGTKLEIK
- EC50 (human B7-H3 (human) [2]): 4.76 nM

B5: 38D6A4 (antibody, V domains shown)
VH: QIQLVQSGPELKKPGEAVKISCKASGSTFTDFGMNWVRQAPGKGLKWMGWINPYSGVPTYADEFKGRFVFSLETSARVAYMQINDLKNEDTATYFCARDDGYHYTMDYWGQGTSVTVSS
VL: DVVMTQTPLPLPVSLGDQASISCRSSQSLIHSNGITYLHWYLQKPGQSPKLLIYKVSNRFSGVPDRFTGSGSGTDFTLKISRVEAEDLGVYFCSQSTHVPWTFGGGSKLEIR
- EC50 (human B7-H3 (human) [2]): 1.78 nM

B6: 38F11B2 (antibody, V domains shown)
VH: QIQLVQSGPELKKPGETVKISCKASGYTFIDYGMNWVKQAPGKGLKWMGWINIYSGVPTYADDFKGRFAFSLETSANTAYLQINNLKNEDTATYFCARDDGYHYTMNYWGQGTSVTVSS
VL: DIVMTQTPLSLPVSLGDQASISCRSSQSLVHSNGITYLHWYLQKSGQSPKLLIYKVSNRFSGVPDRFSGSGSGTAFTLKISRVEAEDLGVYFCSQSTHVPWTFGGGTKLEIK
- EC50 (human B7-H3 (human) [2]): 0.651 nM

B7: 47F3F10B4-VH2-VL4 (antibody, human IgG1, kappa, V domains shown)
VH: QVQLVQSGAEVKKPGASVKVSCKASGYTFTDHYMHWVRQAPGQGLEWMGYIFPNNGVSGYNQNFKDRVTMTRDTSTSTVYMELSSLRSEDTAVYYCARRQLGLGTMDYWGQGTLVTVSS
VL: DIQMTQSPSSLSASVGDRVTITCRASKSVSTSGYNYMHWYQQKPGKAPKLLIYLASNLESGVPSRFSGSGSGTDFTLTISSLQPEDFATYYCQHSKELPWTFGQGTKVEIKR
- EC50 (human B7-H3 (human) [3]): 0.767 nM

B8: 12C9F1B5-VH2.1-VL2 (antibody, human IgG1, kappa, V domains shown)
VH: QVQLVQSGAEVKKPGASVKVSCKASGFTNYGMNWVRQAPGQGLEWMGWINPYSGVPTYADDFKGRVTMTRDTSISTAYMELSRLRSDDTAVYYCARDDGFHYTMDYWGQGTLVTVSS
VL: DIVMTQSPLSLPVTPGEPASISCRSSQNLVHSNGITYLHWYLQKPGQSPQLLIYKVSNRFSGVPDRFSGSGSGTDFTLKISRVEAEDVGVYYCSQSTLVPWTFGQGTKVEIKR
- EC50 (human B7-H3 (human) [3]): 0.153 nM

B9: 34A9C12 (antibody, V domains shown)
VH: QIQLVQSGPELKKSGETVKISCKASGFTNYGINWVKQAPGKGLKWMGWINPYSGVPTYADDFKGRFAFSLETSASTAYLQINNLKNEDSATYFCARDDGFHYTMDYWGQGTSVTVSS
VL: DVVLIQTPLSLPVSLGDQASISCRSSQNLVHSNGITYLHWYLQKPGQSPKLLIYKVSNRFSGVPDRFSGSGSGTDFTLKISRVEAEDLGVYFCSQSTLVPWTFGGGTKLEIK
- EC50 (human B7-H3 (human) [2]): 0.822 nM

B10: 37D11F5B8 (antibody, V domains shown)
VH: QIQLVQSGPELKKPGETVKISCKASGDTFRNNGMNWVKQAPGKGLKWMGWINPYSGVPTYADDFKGRFAFSLETSASTAFLQINNLKNEDTATYFCARDDGYHYTMDFWGLGTSVTVSS
VL: DVVMTQTPLSLPVSLGDQASISCRSSQSLVHSNGITYLHWYLQKPGQSPKLLTYKVSHRFSGVPDRFSGSGSGTDFTLKISRVEAEDLGVYFCSQSTHVPWTFGGGTKLEIK
- EC50 (human B7-H3 (human) [2]): 0.909 nM

B11: 37F11A10 (antibody, V domains shown)
VH: QIQLVQSGPELKKPGETVKISCKASGDTFRNYGMNWVKQAPGKGLKWMGWINPYSGVPTYADDFKGRFAFSLETSASTAFLQINNLKNEDTATYFCARDDGFHYTMDYWGLGTSVTVSS
VL: DVVMTQTPLSLPVSLGDQASISCRSSQSLLHSNGITYLHWYLQKPGQSPKLLTYKVSHRFSGVPDRFSGSGSGTDFTLKISRVEAEDLGVYFCSQSTHVPWTFGGGTKLEIR
- EC50 (human B7-H3 (human) [2]): 1.38 nM

B12: 43H11G12 (antibody, V domains shown)
VH: QIQLVQSGPELKKPGETVKISCKASGYNFRDFGMNWVKQAPGKGLKWMGWLNSYSGVPTYADDFKGRFVLSLETSASTAYLQINNLINEDTATYFCGRDDGYNYTMNYWGQGTSVTVSS
VL: DVVMTQAPLSLPVSLGDQASISCRSSQSLVHSNGITYLHWYLQRAGQSPQLLIYKVSNRFSGVPDRFSGSGSGTDFTLKISRVEAEDLGVYFCSQSTHVPWTFGGGTKLEIK
- EC50 (human B7-H3 (human) [2]): 6.38 nM

B13: 47F3F10B4 (antibody, V domains shown)
VH: EVQLQQSGPELVKPGASVKMSCKASGYTFTDHYMHWVKQSHGKSLEWIGYIFPNNGVSGYNQNFKDKATLTVDKSSSTAYMDLRSLTPEDSAVYYCTRRQLGLGTMDYWGQGTSVTVSS
VL: DIVLTQSPASLAVSLGQRATISCRASKSVSTSGYNYMHWYQQKPGQPPKLLIYLASNLESGVPARFSGSGSGTDFTLNIHPVEEEDAATYYCQHSKELPWTFGGGTKLEIK
- EC50 (human B7-H3 (human) [2]): 0.751 nM

B14: 47C7E3 (antibody, V domains shown)
VH: QIQLVQSGPELKKPGETVKISCKASGYTFTNFGMNWVKQAPGKGLKWMGWIYTPSGVPIYADDFKGRFAVSLETSASTAYLQINNLKNEDTATYFCARDDGYYYTMDYWGQGTSVTVSS
VL: DDVMTQTPLSLPVSLGDHASISCRSSQSLVHSNGDTYLHWYLQKPGQSPKLLIYKVSNRFSGVPDRFSGSGSGTDFTLKISRVEAEDLGVYFCSQSTHVPWTFGGGTKLEIK
- EC50 (human B7-H3 (human) [2]): 0.87 nM

B15: 31H11B1 (antibody, V domains shown)
VH: QVQLQQPGAELGKPGTSVKLSCKASGYTFTSYWMHWVKQRPGQGLEWIGHINPNSGSTNQNAKFKNKATLTVDESSSTAYMQLSTLTSEDSAVYYCTRSGSNYRRNYFDYWGQGTTLTVSS
VL: DIQMTQSSSYLSVSLGGRVTITCKASDHINNWLAWYQQKPGNAPRLLISGATSLETGVPSRFSGSGSGKDYTLSITSLQTEDVATYYCQQYWSTPLTFGAGTKLELK
- EC50 (human B7-H3 (human) [2]): 0.977 nM
